Consider one molecule from publication PMC5341616 (Biochemistry and Biophysics Reports, 2017).

Test [1] has as its target Ubiquitin (UniProt P0CG48 1-76). Description: NMR titration.
Test [2] has as its target PLIC-2 UBL domain UBLN2 1-107 (human, UniProt Q9UHD9 1-107). The experiment in a line: NMR titration.

Chain of PLIC-2 UBL domain UBLN2 1-107 (Q9UHD9 1-107): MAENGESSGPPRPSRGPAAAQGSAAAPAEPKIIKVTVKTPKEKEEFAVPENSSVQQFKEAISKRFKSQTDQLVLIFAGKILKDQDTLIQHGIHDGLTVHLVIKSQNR

B1: PLIC-2 UBA domain UBLN2 578-624 (domain or fragment, human, UniProt Q9UHD9 578-624, looked up)
chain: PEVRFQQQLEQLNAMGFLNREANLQALIATGGDINAAIERLLGSQPS
As for B1, the values for the Kd in test [1] and in test [2] were 8.1 ± 1.5 µM and 175 ± 25 µM, respectively.
